This is an account of results in PMC6355928.

The test addresses Rheb (UniProt Q15382). In words: co-immunoprecipitation, Western blot. Particulars: reference: USP4 wild type; sites S445.

Turning to USP4 (from UniProt Q13107) USP4-S445A, the “binding against the reference” value is “weaker”.
